Reference: paper PMC4915166

Target: gp91^phox, the catalytic subunit of NADPH oxidase (Nox2) (mouse (endogenous in mouse microglia)) (UniProt Q61093)
Sequence (Q61093 whole entry): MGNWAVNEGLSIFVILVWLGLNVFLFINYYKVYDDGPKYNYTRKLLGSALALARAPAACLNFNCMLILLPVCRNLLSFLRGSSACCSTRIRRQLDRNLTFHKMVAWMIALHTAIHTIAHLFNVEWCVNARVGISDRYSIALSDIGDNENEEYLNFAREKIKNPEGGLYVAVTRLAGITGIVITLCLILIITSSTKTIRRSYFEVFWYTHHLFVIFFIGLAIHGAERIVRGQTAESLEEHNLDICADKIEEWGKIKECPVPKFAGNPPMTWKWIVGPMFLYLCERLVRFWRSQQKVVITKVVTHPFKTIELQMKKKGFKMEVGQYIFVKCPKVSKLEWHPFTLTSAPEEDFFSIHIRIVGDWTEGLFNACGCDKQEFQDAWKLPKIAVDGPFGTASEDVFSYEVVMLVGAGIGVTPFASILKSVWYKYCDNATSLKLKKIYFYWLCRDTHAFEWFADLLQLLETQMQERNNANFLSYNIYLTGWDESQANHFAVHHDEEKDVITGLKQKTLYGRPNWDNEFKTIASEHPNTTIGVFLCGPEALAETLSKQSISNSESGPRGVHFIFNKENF

- extracellular superoxide released by mouse microglia (SOD-inhibitable WST-1 reduction), 1.0 μM peptide, increase over the BSA control (% increase compared to the BSA control): 129
Substance: A29-V40 α-Syn peptide (WT, unlabeled, purity >98 %) (from UniProt P37840 29-40)
